The results in this text go back to paper PMC4944944, “The Calponin Family Member CHDP-1 Interacts with Rac/CED-10 to Promote Cell Protrusions” (PLoS Genetics, 2016).

The target of this test is T1, Flag-tagged full-length CHDP-1 (C. elegans, UniProt P91027 1-338).
T1 construct: CHDP-1 (C10G11.7), single type III calponin homology domain protein of C. elegans; fragment limits show 338 residues; Cloned into a modified pFLAG-CMV-2 vector; In the self-association co-IP the second copy carried Myc (modified pcDNA3.1/myc-HIS(-) vector) in place of Flag; also called FLAG-CHDP-1; C10G11.7; source: HEK293T, transfected, in lysate
T1 sequence (looked up): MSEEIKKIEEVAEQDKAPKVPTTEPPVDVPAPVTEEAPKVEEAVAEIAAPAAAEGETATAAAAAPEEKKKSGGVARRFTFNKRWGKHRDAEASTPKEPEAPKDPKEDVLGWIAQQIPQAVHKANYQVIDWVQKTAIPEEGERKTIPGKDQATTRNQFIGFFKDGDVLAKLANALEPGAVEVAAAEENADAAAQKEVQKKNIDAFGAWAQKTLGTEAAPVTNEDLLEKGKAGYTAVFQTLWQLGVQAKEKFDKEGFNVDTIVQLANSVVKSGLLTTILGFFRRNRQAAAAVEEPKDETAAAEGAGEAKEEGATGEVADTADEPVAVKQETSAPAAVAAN
The test can be described thus: co-IP; Flag-CHDP-1 and Myc-CED-10 expressed in HEK293T cells, affinity purified, mixed together, then co-immunoprecipitated with Flag or Myc antibodies. To be noted: both partners purified.

B1: Myc-tagged CED-10 (natural protein)
chain: not shown
notes: CED-10, Rac1 homolog (Rho family small GTPase) of C. elegans; cDNA from Dr. Yuji Kohara; Cloned into a modified pcDNA3.1/myc-HIS(-) vector; also called Rac1/CED-10; worm Rac1 homolog; source: HEK293T, transfected, in lysate
Take B1: the binding result is listed as “binds”.
